Results from patent US20240132578A1.

Columns and labels:
[1] = biological target: HIV-1 Env of isolate THR0.18 (HIV-1); experiment: cell-based or functional assay
[2] = biological target: HIV-1 Env of isolate NL43 (HIV-1); experiment: cell-based or functional assay
[3] = biological target: HIV-1 Env of isolate MGRM-Chronic-B-017 (HIV-1); experiment: cell-based or functional assay
[4] = biological target: HIV-1 Env of isolate 94UG103 (pseudovirus) (HIV-1); experiment: cell-based or functional assay
[5] = biological target: HIV-1 Env of isolate MGRM-AG-011 (subtype AG) (HIV-1); experiment: cell-based or functional assay
[6] = biological target: HIV-1 Env of isolate 92WR021 (pseudovirus) (HIV-1); experiment: cell-based or functional assay
[7] = biological target: HIV-1 Env of isolate 93WR029 (pseudovirus) (HIV-1); experiment: cell-based or functional assay
[8] = biological target: HIV-1 Env of isolate JRCSF (HIV-1) (UniProt P20871); experiment: cell-based or functional assay
[9] = biological target: HIV-1 Env of isolate MGRM-Chronic-B-010 (HIV-1); experiment: cell-based or functional assay
[10] = biological target: HIV-1 Env of isolate MGRM-Chronic-B-023 (HIV-1); experiment: cell-based or functional assay
[11] = biological target: HIV-1 Env of isolate MGRM-Chronic-B-024 (HIV-1); experiment: cell-based or functional assay
[12] = biological target: HIV-1 Env of isolate MGRM-A-014 (subtype A) (HIV-1); experiment: cell-based or functional assay
[13] = biological target: HIV-1 Env of isolate SC422661.8 (HIV-1); experiment: cell-based or functional assay
[14] = biological target: HIV-1 Env of isolate 93UG077 (pseudovirus) (HIV-1); experiment: cell-based or functional assay
[15] = biological target: HIV-1 Env of isolate MGRM-Chronic-B-012 (HIV-1); experiment: cell-based or functional assay
[16] = biological target: HIV-1 Env of isolate TRJ04551.58 (HIV-1); experiment: cell-based or functional assay
[17] = biological target: HIV-1 JR-CSF Env I420A (HIV-1 (isolate JR-CSF)) (UniProt P20871); experiment: cell-based or functional assay
[18] = biological target: HIV-1 Env of isolate MGRM-Chronic-B-020 (HIV-1); experiment: cell-based or functional assay
[19] = biological target: HIV-1 Env of isolate MGRM-Chronic-B-018 (HIV-1); experiment: cell-based or functional assay
[20] = biological target: HIV-1 Env of isolate MGRM-Chronic-B-011 (HIV-1); experiment: cell-based or functional assay
[21] = biological target: HIV-1 Env of isolate 92WR020 (pseudovirus) (HIV-1); experiment: cell-based or functional assay
[22] = biological target: HIV-1 Env of isolate 97ZA012 (HIV-1); experiment: cell-based or functional assay
[23] = biological target: HIV-1 Env of isolate SF162 (HIV-1) (UniProt P19550); experiment: cell-based or functional assay
[24] = biological target: HIV-1 Env of isolate VLGCB3 (HIV-1); experiment: cell-based or functional assay
[25] = biological target: HIV-1 Env of isolate 92UG031 (pseudovirus) (HIV-1); experiment: cell-based or functional assay
[26] = biological target: HIV-1 Env of isolate 92UG037 (pseudovirus) (HIV-1); experiment: cell-based or functional assay
[27] = biological target: HIV-1 Env of isolate 92WR026 (pseudovirus) (HIV-1); experiment: cell-based or functional assay
[28] = biological target: HIV-1 Env of isolate TRO.11 (HIV-1); experiment: cell-based or functional assay
[29] = biological target: HIV-1 Env of isolate 98IN022 (HIV-1); experiment: cell-based or functional assay
[30] = biological target: HIV-1 Env of isolate QH0692.42 (HIV-1); experiment: cell-based or functional assay
[31] = biological target: HIV-1 Env of isolate 92WR024 (pseudovirus) (HIV-1); experiment: cell-based or functional assay
[32] = biological target: HIV-1 Env of isolate 93IN905 (HIV-1); experiment: cell-based or functional assay
[33] = biological target: HIV-1 Env of isolate MGRM-A-003 (pseudovirus) (HIV-1); experiment: cell-based or functional assay
[34] = biological target: HIV-1 Env of isolate 93MW959 (HIV-1); experiment: cell-based or functional assay
[35] = biological target: HIV-1 Env of isolate PVO.4 (HIV-1); experiment: cell-based or functional assay
[36] = biological target: WT JR-FL gp120 (HIV-1 JR-FL); experiment: ELISA, antigen-coated wells, mAb titrated; EC50 by nonlinear regression

5136_H01 (PGT-131) (antibody)
IC50 (µg/mL), pseudovirus neutralization [1]: > 50 µg/mL | IC50 (µg/mL), pseudovirus neutralization [2]: > 50 µg/mL | IC50 (µg/mL), pseudovirus neutralization [3]: > 50 µg/mL | IC50 (µg/mL), pseudovirus neutralization [4]: 1.1 µg/mL | IC50, pseudovirus neutralization [5]: > 50 µg/mL | IC50 (µg/mL), pseudovirus neutralization [6]: 0.012 µg/mL | IC50 (µg/mL), pseudovirus neutralization [7]: > 50 µg/mL | IC50 (µg/mL), pseudovirus neutralization [8]: 0.029 µg/mL | IC50 (µg/mL), pseudovirus neutralization [9]: 0.016 µg/mL | IC50 (µg/mL), pseudovirus neutralization [10]: > 50 µg/mL | IC50 (µg/mL), pseudovirus neutralization [11]: > 50 µg/mL | IC50, pseudovirus neutralization [12]: 15.4 µg/mL | IC50 (µg/mL), pseudovirus neutralization [13]: > 50 µg/mL | IC50 (µg/mL), pseudovirus neutralization [14]: > 50 µg/mL | IC50 (µg/mL), pseudovirus neutralization [15]: 15.7 µg/mL | IC50 (µg/mL), pseudovirus neutralization [16]: 0.088 µg/mL | Fold IC50 increase relative to wild-type (pseudovirus neutralization) [17]: 153 fold | IC50 (µg/mL), pseudovirus neutralization [18]: 0.053 µg/mL | IC50 (µg/mL), pseudovirus neutralization [19]: > 50 µg/mL | IC50 (µg/mL), pseudovirus neutralization [20]: 6.47 µg/mL | IC50 (µg/mL), pseudovirus neutralization [21]: 0.168 µg/mL | IC50 (µg/mL), pseudovirus neutralization [22]: 1.81 µg/mL | IC50 (µg/mL), pseudovirus neutralization [23]: 0.025 µg/mL | IC50 (µg/mL), pseudovirus neutralization [24]: > 50 µg/mL | IC50 (µg/mL), pseudovirus neutralization [25]: > 50 µg/mL | IC50 (µg/mL), pseudovirus neutralization [26]: 0.048 µg/mL | IC50 (µg/mL), pseudovirus neutralization [27]: 0.041 µg/mL | IC50 (µg/mL), pseudovirus neutralization [28]: 1.91 µg/mL | IC50 (µg/mL), pseudovirus neutralization [29]: > 50 µg/mL | IC50 (µg/mL), pseudovirus neutralization [30]: > 50 µg/mL | IC50 (µg/mL), pseudovirus neutralization [31]: > 50 µg/mL | IC50 (µg/mL), pseudovirus neutralization [32]: 0.177 µg/mL | IC50 (µg/mL), pseudovirus neutralization [33]: > 50 µg/mL | IC50 (µg/mL), pseudovirus neutralization [34]: > 50 µg/mL | IC50 (µg/mL), pseudovirus neutralization [35]: > 50 µg/mL | EC50 [36]: 0.4 µg/mL

5114_A19 (PGT-128) (antibody)
IC50 (µg/mL), pseudovirus neutralization [1]: > 50 µg/mL | IC50 (µg/mL), pseudovirus neutralization [2]: > 50 µg/mL | IC50 (µg/mL), pseudovirus neutralization [3]: > 50 µg/mL | IC50 (µg/mL), pseudovirus neutralization [4]: 0.011 µg/mL | IC50, pseudovirus neutralization [5]: 3.93 µg/mL | IC50 (µg/mL), pseudovirus neutralization [6]: 0.005 µg/mL | IC50 (µg/mL), pseudovirus neutralization [7]: > 50 µg/mL | IC50 (µg/mL), pseudovirus neutralization [8]: 0.003 µg/mL | IC50 (µg/mL), pseudovirus neutralization [9]: 0.004 µg/mL | IC50 (µg/mL), pseudovirus neutralization [10]: > 50 µg/mL | IC50 (µg/mL), pseudovirus neutralization [11]: > 50 µg/mL | IC50, pseudovirus neutralization [12]: 0.007 µg/mL | IC50 (µg/mL), pseudovirus neutralization [13]: 1.58 µg/mL | IC50 (µg/mL), pseudovirus neutralization [14]: 0.014 µg/mL | IC50 (µg/mL), pseudovirus neutralization [15]: 0.026 µg/mL | IC50 (µg/mL), pseudovirus neutralization [16]: 0.019 µg/mL | Fold IC50 increase relative to wild-type (pseudovirus neutralization) [17]: 0.8 fold | IC50 (µg/mL), pseudovirus neutralization [18]: 0.007 µg/mL | IC50 (µg/mL), pseudovirus neutralization [19]: 0.02 µg/mL | IC50 (µg/mL), pseudovirus neutralization [20]: 0.02 µg/mL | IC50 (µg/mL), pseudovirus neutralization [21]: 0.005 µg/mL | IC50 (µg/mL), pseudovirus neutralization [22]: 0.019 µg/mL | IC50 (µg/mL), pseudovirus neutralization [23]: 0.007 µg/mL | IC50 (µg/mL), pseudovirus neutralization [24]: 0.012 µg/mL | IC50 (µg/mL), pseudovirus neutralization [25]: > 50 µg/mL | IC50 (µg/mL), pseudovirus neutralization [26]: 0.006 µg/mL | IC50 (µg/mL), pseudovirus neutralization [27]: 0.01 µg/mL | IC50 (µg/mL), pseudovirus neutralization [28]: 0.018 µg/mL | IC50 (µg/mL), pseudovirus neutralization [29]: 0.014 µg/mL | IC50 (µg/mL), pseudovirus neutralization [30]: 0.029 µg/mL | IC50 (µg/mL), pseudovirus neutralization [31]: > 50 µg/mL | IC50 (µg/mL), pseudovirus neutralization [32]: 0.009 µg/mL | IC50 (µg/mL), pseudovirus neutralization [33]: > 50 µg/mL | IC50 (µg/mL), pseudovirus neutralization [34]: 0.045 µg/mL | IC50 (µg/mL), pseudovirus neutralization [35]: 0.005 µg/mL | EC50 [36]: 0.1 µg/mL
